Reference: PMC3444665 (Virology, 2012)
Substitutions are numbered along the chain they refer to.

Assays:
Assay in all cases: pull-down
GST-Agno (F31A) = target: T1, GST-Agno (F31A) (JC virus (JCV Mad-1), UniProt P03086 1-71, F31A)
T1 sequence: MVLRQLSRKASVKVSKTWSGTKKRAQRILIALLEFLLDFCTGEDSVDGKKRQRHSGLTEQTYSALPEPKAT

GST-Agno (F35A) = target: T2, GST-Agno (F35A) (JC virus (JCV Mad-1), UniProt P03086 1-71, F35A)
T2 sequence: T1 sequence with A31F, F35A

GST-Agno (F39A) = target: T3, GST-Agno (F39A) (JC virus (JCV Mad-1), UniProt P03086 1-71, F39A)
T3 sequence: T1 sequence with A31F, F39A

Measured: fold decrease of the interaction against WT agnoprotein

B1: JCV large T-antigen in whole-cell extracts of HJC-15b cells (natural protein)
chain: MDKVLNREESMELMDLLGLDRSAWGNIPVMRKAYLKKCKELHPDKGGDEDKMKRMNFLYKKMEQGVKVAHQPDFGTWNSSEVPTYGTDEWESWWNTFNEKWDEDLFCHEEMFASDDENTGSQHSTPPKKKKKVEDPKDFPVDLHAFLSQAVFSNRTVASFAVYTTKEKAQILYKKLMEKYSVTFISRHGFGGHNILFFLTPHRHRVSAINNYCQKLCTFSFLICKGVNKEYLFYSALCRQPYAVVEESIQGGLKEHDFNPEEPEETKQVSWKLVTQYALETKCEDVFLLMGMYLDFQENPQQCKKCEKKDQPNHFNHHEKHYYNAQIFADSKNQKSICQQAVDTVAAKQRVDSIHMTREEMLVERFNFLLDKMDLIFGAHGNAVLEQYMAGVAWIHCLLPQMDTVIYDFLKCIVLNIPKKRYWLFKGPIDSGKTTLAAALLDLCGGKSLNVNMPLERLNFELGVGIDQFMVVFEDVKGTGAESRDLPSGHGISNLDCLRDYLDGSVKVNLERKHQNKRTQVFPPGIVTMNEYSVPRTLQARFVRQIDFRPKAYLRKSLSCSEYLLEKRILQSGMTLLLLLIWFRPVADFAAAIHERIVQWKERLDLEISMYTFSTMKANVGMGRPILDFPREEDSEAEDSGHGSSTESQSQCFSQVSEASGADTQENCTFHICKGFQCFKKPKTPPPK
> 3 fold: GST-Agno (F31A) | GST-Agno (F35A) | GST-Agno (F39A)
